B1: RA375 (nucleic acid)
DNA: GCGCGTCCTGGATTCGCGGAAACGCGTACATCCAGCTCCGGAATACCAGCATCGTCTTGATGCCCTTGGAAGTCCGGGACGAGTCCCAAATAGGACGAAACGCGC
modifications: expressed or natural sequence
B2: RA377 (nucleic acid)
DNA: GCGCGTCCTGGATTCGCGGAAACGCGTACATCCAGCTGACGAGTCCCAAATAGGACGGAGAATACCAGCATCGTCTTGATGCCCTTGGAAGTCTCAAACGCGC
modifications: expressed or natural sequence
B3: RA379 (nucleic acid)
DNA: GCGCGTCCTGGATTCGCGGAAACGCGGAATACCAGCATCGTCTTGATGCCCTTGGAAGTCCGTACATCCAGCTGACGAGTCCCAAATAGGACGAAACGCGC
modifications: expressed or natural sequence
B4: RA364 (nucleic acid)
DNA: GCGCGTCCTGGATTCGCGGAAACGCGTGGAATACCAGCATCGTCTTGATGCCCTTGGAAGTCCACATCCAGCTGACGAGTCCCAAATAGGACGAAACGCGC
modifications: expressed or natural sequence
B5: RA376 (nucleic acid)
DNA: GCGCGTCCTGGATTCGCGGAAACGCGTACATCCAGCTGAAGAATACCAGCATCGTCTTGATGCCCTTGGAAGTCTCGAGTCCCAAATAGGACGAAACGCGC
modifications: expressed or natural sequence
B6: RA371 (nucleic acid)
DNA: GCGCGTCCTGGATTCGCGGAAACGCGTACATCCAGCTGACGAGTCCCAAAAGAATACCAGCATCGTCTTGATGCCCTTGGAAGTCTTAGGACGAAACGCGC
modifications: expressed or natural sequence
B7: RA362 (nucleic acid)
DNA: GCGCGTCCTGGAGGAATACCAGCATCGTCTTGATGCCCTTGGAAGTCCTTCGCGGAAACGCGTACATCCAGCTGACGAGTCCCAAATAGGACGAAACGCGC
modifications: expressed or natural sequence
B8: RA365 (nucleic acid)
DNA: GCGAGAATACCAGCATCGTCTTGATGCCCTTGGAAGTCTCGTCCTGGATTCGCGGAAACGCGTACATCCAGCTGACGAGTCCCAAATAGGACGAAACGCGC
modifications: expressed or natural sequence
B9: RA372 (nucleic acid)
DNA: GCGCGTCCTGGATTCGCGGAAACGCGTACATCCAGCTGACGAGTCCCAAACGAGAATACCAGCATCGTCTTGATGCCCTTGGAAGTCTCGTAGGACGAAACGCGC
modifications: expressed or natural sequence
B10: RA380 (nucleic acid)
DNA: GCGCGTCCTGGATTCGCGGAAACGCCGAGAATACCAGCATCGTCTTGATGCCCTTGGAAGTCTCGGTACATCCAGCTGACGAGTCCCAAATAGGACGAAACGCGC
modifications: expressed or natural sequence
B11: RA357 (nucleic acid)
DNA: GCGCGTCCTGGATTCGCGGAAACGCGTACATCCAGCTGACGAGTCCCAAATAGGACGGGAATACCAGCATCGTCTTGATGCCCTTGGAAGTCCAAACGCGC
modifications: expressed or natural sequence
B12: RA359 (nucleic acid)
DNA: GCGCGTCCTGGATAGAATACCAGCATCGTCTTGATGCCCTTGGAAGTCTTCGCGGAAACGCGTACATCCAGCTGACGAGTCCCAAATAGGACGAAACGCGC
modifications: expressed or natural sequence
B13: RA367 (nucleic acid)
DNA: GCGCGTCCTGGATGGAATACCAGCATCGTCTTGATGCCCTTGGAAGTCCTCGCGGAAACGCGTACATCCAGCTGACGAGTCCCAAATAGGACGAAACGCGC
modifications: expressed or natural sequence
B14: RA369 (nucleic acid)
DNA: GCGCGTCCTGGATTCGGAATACCAGCATCGTCTTGATGCCCTTGGAAGTCCGCGCGGAAACGCGTACATCCAGCTGACGAGTCCCAAATAGGACGAAACGCGC
modifications: expressed or natural sequence
B15: RA370 (nucleic acid)
DNA: GCGCGTCCTGGATTCGCGGAAACGCGTACATCCAGCTGACGAGTCCCAAATAGGACGAAACGGGAATACCAGCATCGTCTTGATGCCCTTGGAAGTCCCGC
modifications: expressed or natural sequence
B16: RA358 (nucleic acid)
DNA: GCGCGTCCTGGATTCGCGGAAACGCGTACATCCAGCTGACGAGCGGAATACCAGCATCGTCTTGATGCCCTTGGAAGTCCGTCCCAAATAGGACGAAACGCGC
modifications: expressed or natural sequence
B17: RA360 (nucleic acid)
DNA: GCAGAATACCAGCATCGTCTTGATGCCCTTGGAAGTCTGCGTCCTGGATTCGCGGAAACGCGTACATCCAGCTGACGAGTCCCAAATAGGACGAAACGCGC
modifications: expressed or natural sequence
B18: RA374 (nucleic acid)
DNA: GCGCGTCCTGGATTCGCGGAAACGCGTACATCCAGCTGCCGGAATACCAGCATCGTCTTGATGCCCTTGGAAGTCCGGACGAGTCCCAAATAGGACGAAACGCGC
modifications: expressed or natural sequence
B19: RA361 (nucleic acid)
DNA: GCGCGTCCTGGATTCGCGGAAACGCGTACATCCAGCTGACGAGTCCCAAATAGGACGAAACGCCCGGAATACCAGCATCGTCTTGATGCCCTTGGAAGTCCGGGC
modifications: expressed or natural sequence
B20: RA378 (nucleic acid)
DNA: GCGCGTCCTGGATTCGCGGAAACGCGTACATCCCGGAATACCAGCATCGTCTTGATGCCCTTGGAAGTCCGGCAGCTGACGAGTCCCAAATAGGACGAAACGCGC
modifications: expressed or natural sequence
B21: RA366 (nucleic acid)
DNA: GCGCGTCCTGGATTCGCGGAAGAGAATACCAGCATCGTCTTGATGCCCTTGGAAGTCTCACGCGTACATCCAGCTGACGAGTCCCAAATAGGACGAAACGCGC
modifications: expressed or natural sequence
B22: RA368 (nucleic acid)
DNA: GCGCGTCCTGGATTCGCGGAAACGCGTACATCCAGCTGACGAGTCCCGAGAATACCAGCATCGTCTTGATGCCCTTGGAAGTCTCGCAAATAGGACGAAACGCGC
modifications: expressed or natural sequence
B23: RA363 (nucleic acid)
DNA: GCGCGTCCTGGATTCGCGGAAACGCGTACATCCAGCTGACGAGTCCCACGGAATACCAGCATCGTCTTGATGCCCTTGGAAGTCCGAATAGGACGAAACGCGC
modifications: expressed or natural sequence
B24: RA373 (nucleic acid)
DNA: GCGCGTCCTGGATTCGCGGAAACGCGTACATCCAGCTGACGAGTCCCAAGTGATACCAGCATCGTCTTGATGCCCTTGGCAGCACTAATAGGACGAAACGCGC
modifications: expressed or natural sequence
B25: RA356 (nucleic acid)
DNA: GCGCGTCCTGGATTCGCGGAAACGCGTACATCCAGCTGACGAGTCCCAAATAGGACGAAAGAGAATACCAGCATCGTCTTGATGCCCTTGGAAGTCTCCGCGC
modifications: expressed or natural sequence
B26: RA036 (nucleic acid)
DNA: GCGCGTCCTGGATTCGCGGAAACGCGTACATCCAGCTGACGAGTCCCAAATAGGCGAGAATACCAGCATCGTCTTGATGCCCTTGGAAGTCTCGACGAAACGCGC
modifications: expressed or natural sequence
B27: RA037 (nucleic acid)
DNA: GCGCGTCCTGGATTCGCCGGAATACCAGCATCGTCTTGATGCCCTTGGAAGTCCGGGAAACGCGTACATCCAGCTGACGAGTCCCAAATAGGACGAAACGCGC
modifications: expressed or natural sequence
B28: RA003 (nucleic acid)
DNA: GCGCGTCCTGCGGAATACCAGCATCGTCTTGATGCCCTTGGAAGTCCGGATTCGCGGAAACGCGTACATCCAGCTGACGAGTCCCAAATAGGACGAAACGCGC
modifications: expressed or natural sequence
B29: RA035 (nucleic acid)
DNA: GCGCGTCCTGGATTCGCGGAAACGCGTACATCCAGCTGACGAGTCCCAAATAGGACGAAACGGAATACCAGCATCGTCTTGATGCCCTTGGAAGTCCGCGCGC
modifications: expressed or natural sequence

What follows are molecules tested on Renilla luciferase RNA (assay: Barcoded aptazyme variant library screen: un-cleaved Renilla luciferase RNA by barcode read counts, HEK293-T cells). Conditions: un-cleaved Renilla luciferase RNA by barcode read counts; with 1 mM theophylline (ON) over without theophylline (OFF); HEK293-T cells; triplicate.
Assay type: cell-based
Summary of the method: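 Barcode sequencing of cDNA versus DNA, normalized per aptazyme, gave the un-cleaved Renilla luciferase RNA fraction and fold-change with versus without theophylline (triplicates). Library: T3H48 ribozyme with one of seven theophylline aptamer variants inserted at each position, placed in the Renilla 3′ UTR of a dual-luciferase vector.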

Row | Molecule | Fold change in RNA expression between the ON state and the OFF state
1 | B1 | 0.8
2 | B2 | 0.8
3 | B3 | 0.8
4 | B4 | 0.8
5 | B5 | 0.8
6 | B6 | 0.8
7 | B7 | 0.8
8 | B8 | 0.8
9 | B9 | 0.8
10 | B10 | 0.8
11 | B11 | 0.8
12 | B12 | 0.8
13 | B13 | 0.8
14 | B14 | 0.8
15 | B15 | 0.8
16 | B16 | 0.8
17 | B17 | 0.8
18 | B18 | 0.8
19 | B19 | 0.8
20 | B20 | 0.8
21 | B21 | 0.8
22 | B22 | 0.8
23 | B23 | 0.8
24 | B24 | 0.8
25 | B25 | 0.8

Same assay, conditions: un-cleaved Renilla luciferase RNA, HEK293-T cells cultured with 1 mM theophylline (ON) over without theophylline (OFF); barcode read counts, triplicate

Row | Molecule | Fold change in RNA expression between the ON state and the OFF state
26 | B26 | 2.2 fold
27 | B27 | 2.2 fold
28 | B28 | 5.5 fold
29 | B29 | 2.2 fold
